Assay results taken from the MegaScale stability set (Tsuboyama et al. 2023).

B1: HHH_rd1_0493 (parent)
chain: RDEDEKEKIKEALKRGNEDKAKEIAKRANVSPEEYERLRKEAE

Variants of: B1
Assay: folding stability dG (cDNA display proteolysis); higher = more stable
Conditions: PBS, room temperature

Point of comparison: E34R, “folding stability dG” value -0.261 kcal/mol. Against it:
- K10C — higher, 2.32 kcal/mol
- A21Q — higher, 0.364 kcal/mol
- K40A — higher, 3.15 kcal/mol
- A21V — higher, 0.589 kcal/mol
- E18M — higher, 2.74 kcal/mol
- P32L — higher, 2.83 kcal/mol
- N29V — higher, 1.41 kcal/mol
- E33F — higher, 1.96 kcal/mol
- N29Q — higher, 2.62 kcal/mol
- L38W — higher, 1.78 kcal/mol
- A42Q — higher, 1.88 kcal/mol
- L38E — higher, 0.322 kcal/mol
- A25Q — higher, 2.15 kcal/mol
- A25D — higher, 0.442 kcal/mol
- P32T — higher, 2.61 kcal/mol
- R39L — higher, 2.17 kcal/mol
- E34D — higher, 2.42 kcal/mol
- D4M — higher, 2.96 kcal/mol
- P32M — higher, 2.79 kcal/mol
- K26Y — higher, 2.35 kcal/mol
- A12P — higher, 0.229 kcal/mol
- A21T — higher, 0.424 kcal/mol
- R39G — higher, 1.16 kcal/mol
- D2H — higher, 3.05 kcal/mol
- E34Y — higher, 0.926 kcal/mol
- R1M — higher, 3.03 kcal/mol
- S31T — higher, 3.03 kcal/mol
- E43W — higher, 3.31 kcal/mol
- S31I — higher, 1.44 kcal/mol
- K8F — higher, 2.12 kcal/mol
- K20Q — higher, 3.19 kcal/mol
- K10I — higher, 2.8 kcal/mol
- K22A — higher, 2.61 kcal/mol
- R15S — higher, 3.1 kcal/mol
- E36D — higher, 2.7 kcal/mol
- E41H — higher, 1.7 kcal/mol
- A42T — higher, 2.31 kcal/mol
- K8A — higher, 3.29 kcal/mol
- D19V — higher, 2.99 kcal/mol
- R15W — higher, 2.81 kcal/mol
- K20D — higher, 2.85 kcal/mol
- K40F — higher, 2.8 kcal/mol
- L13P — higher, 0.435 kcal/mol
- A25V — higher, 1.37 kcal/mol
- K6S — higher, 2.56 kcal/mol
- K20N — higher, 2.27 kcal/mol
- K40W — higher, 3.23 kcal/mol
- K8W — higher, 2.44 kcal/mol
- V30R — higher, 0.486 kcal/mol
- E33H — higher, 2.03 kcal/mol
- D2F — higher, 3.22 kcal/mol
- R1L — higher, 3.08 kcal/mol
- I9K — higher, 0.396 kcal/mol
- L38F — higher, 1.58 kcal/mol
- R37A — higher, 2.51 kcal/mol
- A28L — higher, 3.25 kcal/mol
- D4P — higher, 2.48 kcal/mol
- E11I — higher, 2.42 kcal/mol
- K14D — higher, 1.1 kcal/mol
- D2S — higher, 2.71 kcal/mol
- A42N — higher, 1.81 kcal/mol
- R39C — higher, 1.52 kcal/mol
- D19R — higher, 2.97 kcal/mol
- E23G — higher, 1.92 kcal/mol
- K20G — higher, 2.5 kcal/mol
- L38Q — higher, 0.492 kcal/mol
- E43G — higher, 2.47 kcal/mol
- L13G — higher, 0.235 kcal/mol
- E33I — higher, 2.19 kcal/mol
- I24Q — higher, 1.13 kcal/mol
- K6C — higher, 1.8 kcal/mol
- E11S — higher, 2.58 kcal/mol
- R37E — higher, 2.4 kcal/mol
- A21I — higher, 0.511 kcal/mol
- K8M — higher, 3.08 kcal/mol
- E41L — higher, 2.63 kcal/mol
- E11G — higher, 2.34 kcal/mol
- L38N — higher, 0.332 kcal/mol
- A12M — higher, 2.86 kcal/mol
- E18P — higher, 2.48 kcal/mol
- R39K — higher, 2.99 kcal/mol
- G16Y — higher, 0.998 kcal/mol
- R39H — higher, 1.8 kcal/mol
- L38D — higher, 0.129 kcal/mol
- A21R — higher, 0.336 kcal/mol
- E33C — higher, 2.29 kcal/mol
- N17S — higher, 2.19 kcal/mol
- K26L — higher, 3.05 kcal/mol
- R37Q — higher, 2.63 kcal/mol
- E23M — higher, 2.33 kcal/mol
- E11V — higher, 2.04 kcal/mol
- V30F — higher, 2.3 kcal/mol
- E3T — higher, 2.94 kcal/mol
- R39P — higher, 0.097 kcal/mol
- K10L — higher, 2.79 kcal/mol
- E34W — higher, 1.1 kcal/mol
- A12Q — higher, 2.69 kcal/mol
- A25N — higher, 0.52 kcal/mol
- E36K — higher, 1.49 kcal/mol
- D2T — higher, 3.03 kcal/mol
- K10G — higher, 0.528 kcal/mol
- K20H — higher, 2.87 kcal/mol
- E43C — higher, 2.61 kcal/mol
- R39E — higher, 1.77 kcal/mol
- E43S — higher, 2.62 kcal/mol
- K6Q — higher, 2.39 kcal/mol
- K8H — higher, 2.42 kcal/mol
- E3M — higher, 2.81 kcal/mol
- G16P — higher, 0.767 kcal/mol
- A28I — higher, 2.98 kcal/mol
- L38V — higher, 1.23 kcal/mol
- K20E — higher, 3.82 kcal/mol
- N17Y — higher, 2.75 kcal/mol
- D2L — higher, 3.39 kcal/mol
- I24F — higher, 1.48 kcal/mol
- E33P — higher, 1.57 kcal/mol
- K8G — higher, 2.34 kcal/mol
- P32W — higher, 2.92 kcal/mol
- R37L — higher, 2.42 kcal/mol
- G16Q — higher, 1.56 kcal/mol
- E43L — higher, 3.33 kcal/mol
- D19K — higher, 3.07 kcal/mol
- S31Q — higher, 2.19 kcal/mol
- N29I — higher, 1.23 kcal/mol
- E36M — higher, 2.24 kcal/mol
- I24D — higher, 0.95 kcal/mol
- K14F — higher, 1.8 kcal/mol
- R27Y — higher, 2.21 kcal/mol
- D2W — higher, 3.17 kcal/mol
- E7N — higher, 2.96 kcal/mol
- G16L — higher, 1.39 kcal/mol
- K22I — higher, 2.8 kcal/mol
- E36G — higher, 1.13 kcal/mol
- D19G — higher, 2.76 kcal/mol
- A12G — higher, 0.656 kcal/mol
- I24E — higher, 1.16 kcal/mol
- K20W — higher, 3.02 kcal/mol
- K6Y — higher, 3.4 kcal/mol
- N17K — higher, 2.41 kcal/mol
- E33T — higher, 2.33 kcal/mol
- L38C — higher, 1.29 kcal/mol
- Y35M — higher, 2.29 kcal/mol
- R1N — higher, 3.16 kcal/mol
- K10M — higher, 2.02 kcal/mol
- E34K — higher, -0.215 kcal/mol
- L13S — higher, 0.332 kcal/mol
- R37P — lower, -0.529 kcal/mol
- E5K — higher, 2.24 kcal/mol
- K10V — higher, 2.28 kcal/mol
- D4H — higher, 2.82 kcal/mol
- Y35W — higher, 2.58 kcal/mol
- N17E — higher, 3.38 kcal/mol
- K20S — higher, 2.6 kcal/mol
- R15H — higher, 3 kcal/mol
- I9T — higher, 0.61 kcal/mol
- S31L — higher, 2.21 kcal/mol
- E23P — higher, 0.537 kcal/mol
- E43D — higher, 2.56 kcal/mol
- E41Q — higher, 2.77 kcal/mol
- E3F — higher, 2.93 kcal/mol
- I24P — higher, 0.59 kcal/mol
- E11T — higher, 2.29 kcal/mol
- E43K — higher, 2.64 kcal/mol
- A42E — higher, 1.25 kcal/mol
- E41A — higher, 2.55 kcal/mol
- E41D — higher, 2.35 kcal/mol
